This is an account of results in patent publication US20240261333A1 (published 2024).

Holding throughout (assay): co-IP, anti-FLAG, lysate of cells with N-FLAG B3GNT2; mass spectrometry
For one assay, the target named is T1, G3BP1 (human, UniProt Q13283 2-466).
T1 construct: also called NP_005745.1

A further assay deals with T2, RBM39 (human, UniProt Q14498-3 2-508, limits assumed).
T2 construct: also called NP_001310351.1 (+3)
T2 sequence (looked up): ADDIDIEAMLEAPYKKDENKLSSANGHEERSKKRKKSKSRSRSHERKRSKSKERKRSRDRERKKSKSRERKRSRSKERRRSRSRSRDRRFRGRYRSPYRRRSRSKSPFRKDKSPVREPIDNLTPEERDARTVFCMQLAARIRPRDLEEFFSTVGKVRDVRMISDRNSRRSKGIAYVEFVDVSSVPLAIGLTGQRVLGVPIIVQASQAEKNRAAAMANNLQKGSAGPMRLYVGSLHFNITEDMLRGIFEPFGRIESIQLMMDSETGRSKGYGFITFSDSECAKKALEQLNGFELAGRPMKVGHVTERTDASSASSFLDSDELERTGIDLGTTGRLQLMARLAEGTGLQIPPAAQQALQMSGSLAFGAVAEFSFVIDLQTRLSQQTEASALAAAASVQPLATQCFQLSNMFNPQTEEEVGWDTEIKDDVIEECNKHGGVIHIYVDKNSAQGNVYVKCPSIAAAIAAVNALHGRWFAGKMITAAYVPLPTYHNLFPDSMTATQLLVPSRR

The target in a further assay is T3, UBAP2L (human, UniProt Q14157 1-1087).
T3 construct: also called NP_055662.3 (+3)
T3 sequence (looked up): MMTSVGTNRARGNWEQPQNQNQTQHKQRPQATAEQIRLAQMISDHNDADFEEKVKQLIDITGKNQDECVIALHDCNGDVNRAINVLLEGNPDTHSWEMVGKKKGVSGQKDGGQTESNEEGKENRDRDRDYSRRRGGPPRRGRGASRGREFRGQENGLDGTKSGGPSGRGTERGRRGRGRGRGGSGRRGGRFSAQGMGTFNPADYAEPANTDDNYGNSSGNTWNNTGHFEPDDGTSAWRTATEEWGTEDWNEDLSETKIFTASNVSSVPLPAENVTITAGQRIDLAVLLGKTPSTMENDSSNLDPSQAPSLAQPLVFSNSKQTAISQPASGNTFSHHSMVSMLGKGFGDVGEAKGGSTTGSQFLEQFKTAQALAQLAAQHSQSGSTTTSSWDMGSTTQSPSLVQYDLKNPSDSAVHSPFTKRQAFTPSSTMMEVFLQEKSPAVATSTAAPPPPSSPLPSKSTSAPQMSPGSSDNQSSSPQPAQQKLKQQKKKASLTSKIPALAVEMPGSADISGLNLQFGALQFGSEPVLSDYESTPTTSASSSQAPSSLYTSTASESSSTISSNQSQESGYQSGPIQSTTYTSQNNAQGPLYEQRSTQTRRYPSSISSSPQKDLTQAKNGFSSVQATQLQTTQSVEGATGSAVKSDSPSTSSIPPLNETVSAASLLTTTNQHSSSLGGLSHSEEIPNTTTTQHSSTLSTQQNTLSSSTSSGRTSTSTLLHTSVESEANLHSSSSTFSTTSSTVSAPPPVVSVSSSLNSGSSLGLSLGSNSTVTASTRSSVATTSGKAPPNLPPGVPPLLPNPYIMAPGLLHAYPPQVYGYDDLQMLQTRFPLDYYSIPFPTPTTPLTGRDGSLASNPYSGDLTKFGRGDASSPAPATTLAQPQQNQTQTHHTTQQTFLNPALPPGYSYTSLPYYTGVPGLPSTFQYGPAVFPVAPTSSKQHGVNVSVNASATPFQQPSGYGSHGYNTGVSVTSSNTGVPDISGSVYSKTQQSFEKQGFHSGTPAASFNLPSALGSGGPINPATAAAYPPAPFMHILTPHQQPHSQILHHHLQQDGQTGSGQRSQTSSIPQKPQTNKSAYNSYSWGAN

The next assay addresses T4, HNRNPK (human, UniProt P61978-3 1-440, limits assumed).
T4 construct: also called NP_001305115.1 (+1)

T1 sequence (Q13283 2-466 limits assumed): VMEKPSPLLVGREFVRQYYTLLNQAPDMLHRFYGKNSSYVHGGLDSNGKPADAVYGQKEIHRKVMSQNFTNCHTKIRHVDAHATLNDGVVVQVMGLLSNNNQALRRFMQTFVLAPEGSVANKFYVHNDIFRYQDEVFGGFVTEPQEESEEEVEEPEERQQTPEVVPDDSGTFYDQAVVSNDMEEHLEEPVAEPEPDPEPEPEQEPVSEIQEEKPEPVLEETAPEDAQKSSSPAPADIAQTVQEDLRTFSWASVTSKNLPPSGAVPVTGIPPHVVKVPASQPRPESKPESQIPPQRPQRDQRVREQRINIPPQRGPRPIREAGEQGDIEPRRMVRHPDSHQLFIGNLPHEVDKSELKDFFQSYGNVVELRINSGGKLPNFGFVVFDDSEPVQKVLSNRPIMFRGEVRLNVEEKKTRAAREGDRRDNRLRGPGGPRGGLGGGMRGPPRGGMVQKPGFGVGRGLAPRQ
T4 sequence (P61978 other isoform, or with tags, fused parts or gaps limits assumed): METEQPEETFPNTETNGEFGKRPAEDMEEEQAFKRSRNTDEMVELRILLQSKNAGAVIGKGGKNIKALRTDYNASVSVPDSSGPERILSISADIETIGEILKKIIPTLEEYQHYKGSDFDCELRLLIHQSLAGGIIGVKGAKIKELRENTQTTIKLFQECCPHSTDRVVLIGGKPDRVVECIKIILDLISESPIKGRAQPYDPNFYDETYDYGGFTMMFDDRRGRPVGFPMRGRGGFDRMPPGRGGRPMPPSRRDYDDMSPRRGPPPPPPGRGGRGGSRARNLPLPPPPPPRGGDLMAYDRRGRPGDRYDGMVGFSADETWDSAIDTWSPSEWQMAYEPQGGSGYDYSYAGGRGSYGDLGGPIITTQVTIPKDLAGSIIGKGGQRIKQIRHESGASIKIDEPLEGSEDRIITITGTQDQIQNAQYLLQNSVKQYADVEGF

B1: N-terminal FLAG tagged B3GNT2 (enzyme, human, UniProt Q9NY97 1-397, looked up)
chain: MSVGRRRIKLLGILMMANVFIYFIMEVSKSSSQEKNGKGEVIIPKEKFWKISTPPEAYWNREQEKLNRQYNPILSMLTNQTGEAGRLSNISHLNYCEPDLRVTSVVTGFNNLPDRFKDFLLYLRCRNYSLLIDQPDKCAKKPFLLLAIKSLTPHFARRQAIRESWGQESNAGNQTVVRVFLLGQTPPEDNHPDLSDMLKFESEKHQDILMWNYRDTFFNLSLKEVLFLRWVSTSCPDTEFVFKGDDDVFVNTHHILNYLNSLSKTKAKDLFIGDVIHNAGPHRDKKLKYYIPEVVYSGLYPPYAGGGGFLYSGHLALRLYHITDQVHLYPIDDVYTGMCLQKLGLVPEKHKGFRTFDIEEKNKNNICSYVDLMLVHSRKPQEMIDIWSQLQSAHLKC
notes: Overexpressed in cells and pulled down from the lysate with mouse anti-FLAG antibody; also called N-FLAG B3GNT2; N-term FLAG; not shown: N-terminal FLAG tag
As to B1, the “co-IP mass spectrometry count” value with G3BP1 was 27; in the assay with RBM39, 4; with UBAP2L it was 20; in the assay with HNRNPK, 9.
